Test results from patent publication US20210087296A1 (published 2021).

Target: matrix metalloproteinase-14 catalytic domain (cdMMP-14) (UniProt P50281 114-287, biotinylated with EZ-Link Sulfo-NHS-LC-Biotin for ELISA; amine-coupled to CM5 chip for SPR)
Experiment: ELISA

Binder	EC50 [nM]
Fab R3C8 (Fab, V domains shown) VH: EVQLVESGGGLVQPGGSLRLSCAASGFNFSSSSIHWVRQAPGKGLEWVASIYPSYSYTYYADSVKGRFTISADTSKNTAYLQMNSLRAEDTAVYYCARHCLLRSRRCEMSTKTRELNVYRYAMDYWGQGTLVTVSS VL: DIQMTQSPSSLSASVGDRVTITCRASQSVSSAVAWYQQKPGKAPKLLIYSASSLYSGVPSRFSGSRSGTDFTLTISSLQPEDFATYYCQQWPVGSSYPITFGQGTKVEIKR	> 1000
Fab 3A2 (Fab, V domains shown) VH: EVQLVESGGGLVQPGGSLRLSCAASGFNLSSSSMHWVRQAPGKGLEWVASIYPSYSYTYYADSVKGRFTISADTSKNTAYLQMNSLRAEDTAVYYCARVKLQKDKSHQWIRNLVATPYGRYVMDYWGQGTLVTVSS VL: DIQMTQSPSSLSASVGDRVTITCRASQSVSSAVAWYQQKPGKAPKLLIYSASSLYSGVPSRFSGSRSGTDFTLTISSLQPEDFATYYCQQYGYPITFGQGTKVEIKR	4
Fab R2C14 (Fab, V domains shown) VH: EVQLVESGGGLVQPGGSLRLSCAASGFNIYSSSIHWVRQAPGKGLEWVASIYSYSGYTYYADSVKGRFTISADTSKNTAYLQMNSLRAEDTAVYYCARVSNRYNRSSASIAGLQLFRPYGMDYWGQGTLVTVSS VL: DIQMTQSPSSLSASVGDRVTITCRASQSVSSAVAWYQQKPGKAPKLLIYSASSLYSGVPSRFSGSRSGTDFTLTISSLQPEDFATYYCQQSSYSLITFGQGTKVEIKR	> 1000
